Data taken from paper PMC4619609.

Legend:
Experiment in all cases: ELISA
mAb 1331 (CD4bs) = settings: mAbs (10 µg/ml); gp120s from virus lysates; parent: est. 2.0; read off a plot
mAb 2219 (V3) = settings: mAbs (10 µg/ml); gp120s from virus lysates; parent: est. 2.2; read off a plot
mAb 1361 (V2i) = settings: mAbs (10 µg/ml); gp120s from virus lysates; parent: est. 2.8; read off a plot
mAb 1418 (Ctrl) = settings: mAbs (10 µg/ml); gp120s from virus lysates; parent: est. 0.21; read off a plot
mAb 1393A (V2i) = settings: mAbs (10 µg/ml); gp120s from virus lysates; parent: est. 2.2; read off a plot
mAb 830A (V2i) = settings: mAbs (10 µg/ml); gp120s from virus lysates; parent: est. 2.1; read off a plot
[1] = biological target: recombinant CD4-IgG2 protein (UniProt P01730); settings: 10 µg/ml; gp120s from virus lysates; parent: est. 3.7; read off a plot
mAb 2158 (V2i) = settings: mAbs (10 µg/ml); gp120s from virus lysates; parent: est. 2.0; read off a plot
mAb 1357 (V2i) = settings: mAbs (10 µg/ml), gp120s from virus lysates

**Q.** How did the response (mAb 1331 (CD4bs)) turn out when gp120 of ZM109 WT R153E was run?
**A.** 1.9 OD 405nm

**Q.** And the response (mAb 2219 (V3))?
**A.** 2.6 OD 405nm

**Q.** And the response (mAb 1361 (V2i))?
**A.** 2.3 OD 405nm

**Q.** What about the response (mAb 1418 (Ctrl)) of the same substance?
**A.** 0.17 OD 405nm

**Q.** And the response (mAb 1393A (V2i))?
**A.** 2.4 OD 405nm

**Q.** And the response (mAb 830A (V2i))?
**A.** 2 OD 405nm

**Q.** And the response [1]?
**A.** 3.6 OD 405nm

**Q.** What about the response (mAb 2158 (V2i)) of the same substance?
**A.** 1.7 OD 405nm

**Q.** What about the ratio to parent (mAb 1357 (V2i)) of the same substance?
**A.** 3 x

**Q.** And the response (mAb 1357 (V2i); parent: est. 0.46, read off a plot)?
**A.** 1.5 OD 405nm
